# Assay results as given in publication PMC9242648, “Hypertrophic cardiomyopathy mutations in the pliant and light chain-binding regions of the lever arm of human β-cardiac myosin have divergent effects on myosin function” (eLife, 2022).
# T1: human β-cardiac myosin 2-hep heavy chain, wild type (human | )
# T1 chain: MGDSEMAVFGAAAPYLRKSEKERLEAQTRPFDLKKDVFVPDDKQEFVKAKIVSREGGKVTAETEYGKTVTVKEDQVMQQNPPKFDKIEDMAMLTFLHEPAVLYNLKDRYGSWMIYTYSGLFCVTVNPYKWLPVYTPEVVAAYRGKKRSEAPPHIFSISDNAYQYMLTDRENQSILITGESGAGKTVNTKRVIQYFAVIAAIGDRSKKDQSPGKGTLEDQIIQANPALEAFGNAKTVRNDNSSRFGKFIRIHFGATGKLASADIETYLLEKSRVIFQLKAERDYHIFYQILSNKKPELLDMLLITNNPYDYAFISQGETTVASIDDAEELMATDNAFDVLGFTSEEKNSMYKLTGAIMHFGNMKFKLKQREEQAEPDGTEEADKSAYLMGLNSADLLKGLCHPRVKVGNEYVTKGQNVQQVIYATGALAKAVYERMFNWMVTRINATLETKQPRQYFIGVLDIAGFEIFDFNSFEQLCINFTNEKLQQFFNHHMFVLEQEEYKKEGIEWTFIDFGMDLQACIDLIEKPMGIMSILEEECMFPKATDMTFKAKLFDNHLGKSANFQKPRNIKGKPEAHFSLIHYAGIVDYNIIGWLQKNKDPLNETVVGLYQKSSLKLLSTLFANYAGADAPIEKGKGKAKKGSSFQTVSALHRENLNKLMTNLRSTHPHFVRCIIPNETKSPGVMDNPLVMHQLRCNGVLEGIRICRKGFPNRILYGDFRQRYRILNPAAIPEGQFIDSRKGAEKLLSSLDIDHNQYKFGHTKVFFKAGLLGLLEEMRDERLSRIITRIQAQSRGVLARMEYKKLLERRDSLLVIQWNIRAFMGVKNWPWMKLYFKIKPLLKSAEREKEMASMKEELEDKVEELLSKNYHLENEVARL
# B1: human regulatory light chain (MYL2) (natural protein, UniProt P10916 1-166, looked up)
# chain: MAPKKAKKRAGGANSNVFSMFEQTQIQEFKEAFTIMDQNRDGFIDKNDLRDTFAALGRVNVKNEEIDEMIKEAPGPINFTVFLTMFGEKLKGADPEETILNAFKVFDPEGKGVLKADYVREMLTTQAERFSKEEVDQMFAAFPPDVTGNLDYKNLVHIITHGEEKD
# notes: human regulatory light chain, MYL2; N-terminal His-TEV tag added; also called RLC; source: E. coli, purified (as in Nag et al., 2017)
# B2: human essential light chain (MYL3) (natural protein)
# chain: not shown
# notes: human essential light chain, MYL3; N-terminal FLAG tag followed by a TEV protease site; TEV protease cleaved the ELC-myosin complex off the anti-FLAG resin; also called ELC; not shown: FLAG, N-terminal, cleaved
# Columns and labels:
# [1] = target: T1, human β-cardiac myosin 2-hep heavy …; assay: light chain loading gel assay (Coomassie SDS-PAGE densitometry of the co-purified complex); human RLC purified from E. coli added to myosin held on anti-FLAG resin after depletion of native mouse RLC (>2.5 hr, 4°C); buffer exchanged 5x in a 50 or 100 kDa filter to remove unbound light chains; dilution series 10-1 pmol per lane, 700 nm scan, slope of light chain over slope of heavy chain; conditions: both partners purified
# [2] = target: T1, human β-cardiac myosin 2-hep heavy …; assay: light chain loading gel assay (Coomassie SDS-PAGE densitometry of the co-purified complex); ELC co-expressed with the 2-hep heavy chain in C2C12 cells and purified through the FLAG tag of the ELC; buffer exchanged 5x in a 50 or 100 kDa filter to remove unbound light chains; dilution series 10-1 pmol per lane, 700 nm scan, slope of light chain over slope of heavy chain; conditions: partners not purified
binder,measurement,setting,value
B1,"RLC/HC ratio (Coomassie band density, light chain over heavy chain)",[1],0.11
B2,"ELC/HC ratio (Coomassie band density, light chain over heavy chain)",[2],0.19
